Like-named read-outs stand apart in the source and are kept apart here.
T1: Brr2^C-Sec63 pre-incubated with FBP21^116–376 (human | , UniProt O75643 1840-2136; O75554 116-376)
T1 sequence (looked up) 1: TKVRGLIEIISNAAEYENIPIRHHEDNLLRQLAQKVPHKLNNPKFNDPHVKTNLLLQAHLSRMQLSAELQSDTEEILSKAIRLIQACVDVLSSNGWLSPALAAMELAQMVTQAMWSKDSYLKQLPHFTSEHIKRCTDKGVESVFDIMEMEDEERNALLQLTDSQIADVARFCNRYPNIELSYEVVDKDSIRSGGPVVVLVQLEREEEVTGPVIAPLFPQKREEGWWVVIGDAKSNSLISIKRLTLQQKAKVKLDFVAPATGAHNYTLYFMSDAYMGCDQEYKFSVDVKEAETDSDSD
T1 sequence (looked up) 2: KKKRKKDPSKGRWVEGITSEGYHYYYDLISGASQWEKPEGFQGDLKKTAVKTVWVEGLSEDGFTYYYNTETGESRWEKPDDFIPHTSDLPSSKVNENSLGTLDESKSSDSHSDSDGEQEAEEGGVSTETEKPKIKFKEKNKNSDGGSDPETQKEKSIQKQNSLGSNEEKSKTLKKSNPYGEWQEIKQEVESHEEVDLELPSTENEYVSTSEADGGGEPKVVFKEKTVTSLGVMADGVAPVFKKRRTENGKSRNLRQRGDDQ

T2: Brr2^C-Sec63 (human, UniProt O75643 1840-2136)
T2 sequence (looked up): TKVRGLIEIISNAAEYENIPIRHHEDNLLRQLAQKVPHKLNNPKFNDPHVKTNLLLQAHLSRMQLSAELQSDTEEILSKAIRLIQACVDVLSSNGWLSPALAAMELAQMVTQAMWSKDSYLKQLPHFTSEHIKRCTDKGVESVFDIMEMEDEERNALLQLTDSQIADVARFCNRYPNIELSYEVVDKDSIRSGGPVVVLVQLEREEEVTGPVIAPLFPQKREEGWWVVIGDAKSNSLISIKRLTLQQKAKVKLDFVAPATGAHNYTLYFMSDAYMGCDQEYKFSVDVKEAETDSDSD

B1: FBP21^116–376 (domain or fragment, UniProt O75554 116-376, looked up)
chain: KKKRKKDPSKGRWVEGITSEGYHYYYDLISGASQWEKPEGFQGDLKKTAVKTVWVEGLSEDGFTYYYNTETGESRWEKPDDFIPHTSDLPSSKVNENSLGTLDESKSSDSHSDSDGEQEAEEGGVSTETEKPKIKFKEKNKNSDGGSDPETQKEKSIQKQNSLGSNEEKSKTLKKSNPYGEWQEIKQEVESHEEVDLELPSTENEYVSTSEADGGGEPKVVFKEKTVTSLGVMADGVAPVFKKRRTENGKSRNLRQRGDDQ

Legend:
Experiment in all cases: ITC
FBP21^116–376 = biological target: B1
[1] = biological target: T1, Brr2^C-Sec63 pre-incubated with …
Brr2^C-Sec63 [2] = biological target: T2, Brr2^C-Sec63
Brr2^C-Sec63 [3] = biological target: T2, Brr2^C-Sec63; remark: listed apart in the source
Brr2^C-Sec63 [4] = biological target: T2, Brr2^C-Sec63; remark: listed apart in the source

Kd (Brr2^C-Sec63 [2]) | other results | Binder
– | Kd (FBP21^116–376): 16.8 ± 3 µM; Kd [1]: 14 ± 0.8 µM | GTPMGMPPPGMRPPPPGMRGLL [SmB-derived peptide]
27.3 ± 3.01 µM | – | KRFKR [positively charged control peptide KRFKR]
0.11 µM | – | FBP21^326–376 (domain or fragment, UniProt O75554 326-376, looked up) EADGGGEPKVVFKEKTVTSLGVMADGVAPVFKKRRTENGKSRNLRQRGDDQ
0.275 ± 0.106 µM | – | B1
– | Kd (Brr2^C-Sec63 [3]): 0.194 ± 0.014 µM | FBP21^116–376 pre-incubated with SmB peptide (complex) KKKRKKDPSKGRWVEGITSEGYHYYYDLISGASQWEKPEGFQGDLKKTAVKTVWVEGLSEDGFTYYYNTETGESRWEKPDDFIPHTSDLPSSKVNENSLGTLDESKSSDSHSDSDGEQEAEEGGVSTETEKPKIKFKEKNKNSDGGSDPETQKEKSIQKQNSLGSNEEKSKTLKKSNPYGEWQEIKQEVESHEEVDLELPSTENEYVSTSEADGGGEPKVVFKEKTVTSLGVMADGVAPVFKKRRTENGKSRNLRQRGDDQ peptide: GTPMGMPPPGMRPPPPGMRGLL
27.5 µM | stoichiometry N (Brr2^C-Sec63 [2]): 1 | GVMADGVAPVFKKRRTENGK [peptide 57]
0.298 µM | stoichiometry N (Brr2^C-Sec63 [2]): 1 | FBP21^276–376 (domain or fragment, UniProt O75554 276-376, looked up) NSLGSNEEKSKTLKKSNPYGEWQEIKQEVESHEEVDLELPSTENEYVSTSEADGGGEPKVVFKEKTVTSLGVMADGVAPVFKKRRTENGKSRNLRQRGDDQ
– | Kd (Brr2^C-Sec63 [4]): 1.34 ± 0.19 µM | GVAPVFKKRRTENGKSRNLR [peptide 58]
0.125 µM | stoichiometry N (Brr2^C-Sec63 [2]): 1 | FBP21^200–376 (domain or fragment, UniProt O75554 200-376, looked up) HTSDLPSSKVNENSLGTLDESKSSDSHSDSDGEQEAEEGGVSTETEKPKIKFKEKNKNSDGGSDPETQKEKSIQKQNSLGSNEEKSKTLKKSNPYGEWQEIKQEVESHEEVDLELPSTENEYVSTSEADGGGEPKVVFKEKTVTSLGVMADGVAPVFKKRRTENGKSRNLRQRGDDQ
27.8 ± 0.9 µM | – | FBP21^200–376 K357E/R359E (domain or fragment, UniProt O75554 200-376, looked up) HTSDLPSSKVNENSLGTLDESKSSDSHSDSDGEQEAEEGGVSTETEKPKIKFKEKNKNSDGGSDPETQKEKSIQKQNSLGSNEEKSKTLKKSNPYGEWQEIKQEVESHEEVDLELPSTENEYVSTSEADGGGEPKVVFKEKTVTSLGVMADGVAPVFEKERTENGKSRNLRQRGDDQ
2.04 ± 0.37 µM | – | FBP21^200–376 K358A/R360A (domain or fragment, UniProt O75554 200-376, looked up) HTSDLPSSKVNENSLGTLDESKSSDSHSDSDGEQEAEEGGVSTETEKPKIKFKEKNKNSDGGSDPETQKEKSIQKQNSLGSNEEKSKTLKKSNPYGEWQEIKQEVESHEEVDLELPSTENEYVSTSEADGGGEPKVVFKEKTVTSLGVMADGVAPVFKARATENGKSRNLRQRGDDQ
20 ± 1.1 µM | – | FKKRR [core binding motif of peptide 57, ^356FKKRR^360]
37 ± 5.99 µM | – | GKKRR [positively charged control peptide GKKRR]

Source: publication PMC5570060 (Nucleic Acids Research, 2017)
